Measured values taken from paper PMC7480107.

Molecular target: F-actin (rabbit muscle actin, polymerized) (rabbit) (UniProt P68135)
Assay: co-sedimentation

Row | percent of the protein in the pellet with F-actin | Substance
1 | 84% | Pav-HEAD (1-500 aa) (domain or fragment)
2 | 87% | Pav^DEAD-HEAD (1-500 aa with G131E mutation) (domain or fragment)
